Test results reported in publication PMC4114559, “Pigment Dispersing Factor Regulates Ecdysone Biosynthesis via Bombyx Neuropeptide G Protein Coupled Receptor-B2 in the Prothoracic Glands of Bombyx mori” (PLoS ONE, 2014).

Columns and labels:
ERK = assay: p-ERK level in cultured PGs (Western blot); assay type: cell-based, Bombyx mori; conditions: 15 min, immunoblotting
Description: (§1) Dissected PGs were rinsed with Grace's insect culture medium (Gibco) and pre-cultured individually in 100 µl medium in 96-well plates (BD Falcon) at 25°C for 30 min. To evaluate the effect of extracellular Ca^2+ on ecdysone biosynthesis, lepidopteran saline and lepidopteran saline using NaCl as a replacement for CaCl2 were used. For the pharmacological analysis, the PG was pre-treated with the inhibitor for 15 min during the pre-culture period. Following this treatment, the PG was cultured in the desired conditions for the desired period (Ecdysone assay: 3 hours; cAMP assay: 30 min; and Protein phosphorylation assay: 15 min). […]
Dissected PGs were pre-cultured in Grace's culture medium for 30 min, then cultured with or without PDF or PTTH for 15 min. The cultured PGs were sonicated in 50 mM Tris-HCl (pH 6.8) with protease inhibitor cocktail (Complete, Roche) and phosphatase inhibitor cocktail (Wako), lysed in 1x SDS sample buffer excluding 2-mercaptoethanol (2ME) and bromophenol blue (BPB), and the protein concentration was measured using the BCA protein assay kit (Pierce). […]
Figure 4 Signaling pathways involved in PDF-induced ecdysone biosynthesis. […] The transcript levels of nvd, nm-g, spo, phm, dib and sad were quantified with Q-PCR. […] Statistically significant differences were evaluated by Student's t-test (***P<0.001, **P<0.01). […]

PGs of B. mori = assay: Intracellular cAMP level in cultured PGs; assay type: cell-based, Bombyx mori; conditions: Ca2+-free lepidopteran saline, n = 4–8
Description: as §1, with “min). Actinomycin D, H-89 and cycloheximide (CHX) were purchased from Sigma; Rapamycin was purchased from Santa Cruz Biotechnology; and LY294002 was purchased from Merck. H-89 was dissolved in water. The other inhibitors were dissolved in DMSO.” for “min).”
HEK293 cells were transfected with an empty mammalian expression vector (pME18S) or the full-length BNGR-B2 ORF inserted into the pME18S vector (BNGR-B2/pME18S) using Lipofectamine LTX with PLUS reagent (Invitrogen) according to the manufacturer's instructions. […] The luminescence was measured with a Wallac ARVO SX 1420 Multilabel Counter (PerkinElmer).
Figure 3 Prothoracicotropic activities of PDF in vitro. […] Statistically significant differences were evaluated by Student's t-test (***P<0.001, **P<0.01, *P<0.05).

B1: PTTH: prothoracicotropic hormone, humoral pathway-mediated tropic hormone (protein, UniProt P17219 116-224, looked up)
Prothoracicotropic hormone: GNIQVENQAIPDPPCTCKYKKEIEDLGENSVPRFIETRNCNKTQQPTCRPPYICKESLYSITILKRRETKSQESLEIPNELKYRWVAESHPVSVACLCTRDYQLRYNNN
modifications: Prothoracicotropic hormone
level of p-ERK (ERK): upregulated
effect of Ca2+ depletion on induced upregulation of intracellular cAMP levels (PGs of B. mori): suppressed PTTH-induced upregulation of intracellular cAMP levels
